# *1 amine or outer side, *2 acyl side, *3 side chain or, on linkers, in order; H or OH if unused. Bridges are numbered along the chain shown (N, C = ends). [ ]: non-standard residue; d: D form. The star is where a group is joined. C20 diacid = O=C(O)CCCCCCCCCCCCCCCCCCC(=O)*; γGlu = O=C(O)[C@H](CCC(=O)[*:2])N[*:1]; Hyp = O=C(O)[C@@H]1C[C@@H](O)CN1; NMeI = CC[C@H](C)[C@H](NC)C(=O)O; Aad = N[C@@H](CCCC(=O)O)C(=O)O; Orn = NCCC[C@H](N)C(=O)O; Sar = CNCC(=O)O
# T1: human amylin receptor 3 (hAMYR3), hCTR2 co-expressed with human receptor activity modifying protein 3 (hRAMP3) (human, UniProt P30988 25-474; O60896 24-148)
# T1 sequence (looked up) 1: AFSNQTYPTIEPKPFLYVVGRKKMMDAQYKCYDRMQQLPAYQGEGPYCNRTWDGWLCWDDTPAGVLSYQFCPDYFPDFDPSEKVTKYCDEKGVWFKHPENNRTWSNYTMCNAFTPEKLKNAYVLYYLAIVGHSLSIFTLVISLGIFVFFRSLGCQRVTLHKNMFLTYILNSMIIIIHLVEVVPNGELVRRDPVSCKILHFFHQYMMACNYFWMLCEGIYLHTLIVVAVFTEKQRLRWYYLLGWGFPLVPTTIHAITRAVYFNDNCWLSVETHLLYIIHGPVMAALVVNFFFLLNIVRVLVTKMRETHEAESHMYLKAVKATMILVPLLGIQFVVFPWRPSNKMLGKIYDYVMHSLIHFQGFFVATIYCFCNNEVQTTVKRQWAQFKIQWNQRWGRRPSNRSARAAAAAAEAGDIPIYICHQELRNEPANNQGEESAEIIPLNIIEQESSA
# T1 sequence (looked up) 2: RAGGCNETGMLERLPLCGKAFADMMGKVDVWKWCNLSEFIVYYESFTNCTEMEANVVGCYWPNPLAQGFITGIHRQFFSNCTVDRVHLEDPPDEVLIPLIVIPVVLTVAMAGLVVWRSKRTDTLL
# Target: T1, human amylin receptor 3 (hAMYR3), hCTR2 …
# Assay: cell-based or functional assay
row,hAMYR3 EC50 (nM); cAMP induction,Binder
1,0.14 nM,{C20 diacid}-[γGlu]RCGTATCATERLADFLQRSSF[Sar]A[NMeI]LSSTEVGSNT[Hyp]-NH2 (disulfide 3-8; SMILES CC[C@H](C)[C@@H](C(=O)N[C@@H](CC(C)C)C(=O)N[C@@H](CO)C(=O)N[C@@H](CO)C(=O)N[C@H](C(=O)N[C@@H](CCC(=O)O)C(=O)N[C@H](C(=O)NCC(=O)N[C@@H](CO)C(=O)N[C@@H](CC(N)=O)C(=O)N[C@H](C(=O)N1C[C@H](O)C[C@H]1C(N)=O)[C@@H](C)O)C(C)C)[C@@H](C)O)N(C)C(=O)[C@H](C)NC(=O)CN(C)C(=O)[C@H](Cc1ccccc1)NC(=O)[C@H](CO)NC(=O)[C@H](CO)NC(=O)[C@H](CCCNC(=N)N)NC(=O)[C@H](CCC(N)=O)NC(=O)[C@H](CC(C)C)NC(=O)[C@H](Cc1ccccc1)NC(=O)[C@H](CC(=O)O)NC(=O)[C@H](C)NC(=O)[C@H](CC(C)C)NC(=O)[C@H](CCCNC(=N)N)NC(=O)[C@H](CCC(=O)O)NC(=O)[C@@H](NC(=O)[C@H](C)NC(=O)[C@@H]1CSSC[C@H](NC(=O)[C@H](CCCNC(=N)N)NC(=O)CC[C@H](NC(=O)CCCCCCCCCCCCCCCCCCC(=O)O)C(=O)O)C(=O)NCC(=O)N[C@@H]([C@@H](C)O)C(=O)N[C@@H](C)C(=O)N[C@@H]([C@@H](C)O)C(=O)N1)[C@@H](C)O) [[19CD]-isoGlu-R-C( )-GTAT-C( )-ATERLADFLQRSSF-Gly(Me)-A-Ile(Me)-LSSTEVGSNT-Hyp-NH2 (Compd. 54)]
2,0.08 nM,{C20 diacid-γGlu}-RCNTATCATERLAHFLQRSSF[Sar]A[NMeI]LSSTEVGSNT[Hyp]-NH2 (disulfide 2-7) [[19CD]-isoGlu-R-C( )-NTAT-C( )-ATERLAHFLQRSSF-Gly(Me)-A-Ile(Me)-LSSTEVGSNT-Hyp-NH2 (Compd. 56)]
3,0.09 nM,{C20 diacid}-[γGlu]RCGTATCATERLAHFLQRSSF[Sar]A[NMeI]LSSTEVGSGT[Hyp]-NH2 (disulfide 3-8; SMILES CC[C@H](C)[C@@H](C(=O)N[C@@H](CC(C)C)C(=O)N[C@@H](CO)C(=O)N[C@@H](CO)C(=O)N[C@H](C(=O)N[C@@H](CCC(=O)O)C(=O)N[C@H](C(=O)NCC(=O)N[C@@H](CO)C(=O)NCC(=O)N[C@H](C(=O)N1C[C@H](O)C[C@H]1C(N)=O)[C@@H](C)O)C(C)C)[C@@H](C)O)N(C)C(=O)[C@H](C)NC(=O)CN(C)C(=O)[C@H](Cc1ccccc1)NC(=O)[C@H](CO)NC(=O)[C@H](CO)NC(=O)[C@H](CCCNC(=N)N)NC(=O)[C@H](CCC(N)=O)NC(=O)[C@H](CC(C)C)NC(=O)[C@H](Cc1ccccc1)NC(=O)[C@H](Cc1c[nH]cn1)NC(=O)[C@H](C)NC(=O)[C@H](CC(C)C)NC(=O)[C@H](CCCNC(=N)N)NC(=O)[C@H](CCC(=O)O)NC(=O)[C@@H](NC(=O)[C@H](C)NC(=O)[C@@H]1CSSC[C@H](NC(=O)[C@H](CCCNC(=N)N)NC(=O)CC[C@H](NC(=O)CCCCCCCCCCCCCCCCCCC(=O)O)C(=O)O)C(=O)NCC(=O)N[C@@H]([C@@H](C)O)C(=O)N[C@@H](C)C(=O)N[C@@H]([C@@H](C)O)C(=O)N1)[C@@H](C)O) [[19CD]-isoGlu-R-C( )-GTAT-C( )-ATERLAHFLQRSSF-Gly(Me)-A-Ile(Me)-LSSTEVGSGT-Hyp-NH2 (Compd. 52)]
4,0.19 nM,{C20 diacid-γGlu}-RCNTATCATQRLAHFL[Aad]RSSF[Sar]A[NMeI]LSSTEVGSNT[Hyp]-NH2 (disulfide 2-7; SMILES CC[C@H](C)[C@@H](C(=O)N[C@@H](CC(C)C)C(=O)N[C@@H](CO)C(=O)N[C@@H](CO)C(=O)N[C@H](C(=O)N[C@@H](CCC(=O)O)C(=O)N[C@H](C(=O)NCC(=O)N[C@@H](CO)C(=O)N[C@@H](CC(N)=O)C(=O)N[C@H](C(=O)N1C[C@H](O)C[C@H]1C(N)=O)[C@@H](C)O)C(C)C)[C@@H](C)O)N(C)C(=O)[C@H](C)NC(=O)CN(C)C(=O)[C@H](Cc1ccccc1)NC(=O)[C@H](CO)NC(=O)[C@H](CO)NC(=O)[C@H](CCCNC(=N)N)NC(=O)[C@H](CCCC(=O)O)NC(=O)[C@H](CC(C)C)NC(=O)[C@H](Cc1ccccc1)NC(=O)[C@H](Cc1c[nH]cn1)NC(=O)[C@H](C)NC(=O)[C@H](CC(C)C)NC(=O)[C@H](CCCNC(=N)N)NC(=O)[C@H](CCC(N)=O)NC(=O)[C@@H](NC(=O)[C@H](C)NC(=O)[C@@H]1CSSC[C@H](NC(=O)[C@H](CCCNC(=N)N)NC(=O)CC[C@H](NC(=O)CCCCCCCCCCCCCCCCCCC(=O)O)C(=O)O)C(=O)N[C@@H](CC(N)=O)C(=O)N[C@@H]([C@@H](C)O)C(=O)N[C@@H](C)C(=O)N[C@@H]([C@@H](C)O)C(=O)N1)[C@@H](C)O) [[19CD]-isoGlu-R-C( )-NTAT-C( )-ATQRLAHFL-Aad-RSSF-Gly(Me)-A-Ile(Me)-LSSTEVGSNT-Hyp-NH2 (Compd. 50)]
5,0.13 nM,{C20 diacid}-[γGlu]RCGTATCATERLAHFLQRSSF[Sar]A[NMeI]LSSTEVGS[Aad]T[Hyp]-NH2 (disulfide 3-8; SMILES CC[C@H](C)[C@@H](C(=O)N[C@@H](CC(C)C)C(=O)N[C@@H](CO)C(=O)N[C@@H](CO)C(=O)N[C@H](C(=O)N[C@@H](CCC(=O)O)C(=O)N[C@H](C(=O)NCC(=O)N[C@@H](CO)C(=O)N[C@@H](CCCC(=O)O)C(=O)N[C@H](C(=O)N1C[C@H](O)C[C@H]1C(N)=O)[C@@H](C)O)C(C)C)[C@@H](C)O)N(C)C(=O)[C@H](C)NC(=O)CN(C)C(=O)[C@H](Cc1ccccc1)NC(=O)[C@H](CO)NC(=O)[C@H](CO)NC(=O)[C@H](CCCNC(=N)N)NC(=O)[C@H](CCC(N)=O)NC(=O)[C@H](CC(C)C)NC(=O)[C@H](Cc1ccccc1)NC(=O)[C@H](Cc1c[nH]cn1)NC(=O)[C@H](C)NC(=O)[C@H](CC(C)C)NC(=O)[C@H](CCCNC(=N)N)NC(=O)[C@H](CCC(=O)O)NC(=O)[C@@H](NC(=O)[C@H](C)NC(=O)[C@@H]1CSSC[C@H](NC(=O)[C@H](CCCNC(=N)N)NC(=O)CC[C@H](NC(=O)CCCCCCCCCCCCCCCCCCC(=O)O)C(=O)O)C(=O)NCC(=O)N[C@@H]([C@@H](C)O)C(=O)N[C@@H](C)C(=O)N[C@@H]([C@@H](C)O)C(=O)N1)[C@@H](C)O) [[19CD]-isoGlu-R-C( )-GTAT-C( )-ATERLAHFLQRSSF-Gly(Me)-A-Ile(Me)-LSSTEVGS-Aad-T-Hyp-NH2 (Compd. 53)]
6,0.1 nM,{C20 diacid}-[γGlu]RCNTATCATQRLAHFLQRSSF[Sar]A[NMeI]LSSTEVGSNT[Hyp]-NH2 (disulfide 3-8) [[19CD]-isoGlu-R-C( )-NTAT-C( )-ATQRLAHFLQRSSF-Gly(Me)-A-Ile(Me)-LSSTEVGSNT-Hyp-NH2 (Compd. 58)]
7,0.11 nM,{C20 diacid}-[γGlu]RCGTATCATERLAHFLQRSSF[Sar]A[NMeI]LSSTEVGS[Orn]T[Hyp]-NH2 (disulfide 3-8; SMILES CC[C@H](C)[C@@H](C(=O)N[C@@H](CC(C)C)C(=O)N[C@@H](CO)C(=O)N[C@@H](CO)C(=O)N[C@H](C(=O)N[C@@H](CCC(=O)O)C(=O)N[C@H](C(=O)NCC(=O)N[C@@H](CO)C(=O)N[C@@H](CCCN)C(=O)N[C@H](C(=O)N1C[C@H](O)C[C@H]1C(N)=O)[C@@H](C)O)C(C)C)[C@@H](C)O)N(C)C(=O)[C@H](C)NC(=O)CN(C)C(=O)[C@H](Cc1ccccc1)NC(=O)[C@H](CO)NC(=O)[C@H](CO)NC(=O)[C@H](CCCNC(=N)N)NC(=O)[C@H](CCC(N)=O)NC(=O)[C@H](CC(C)C)NC(=O)[C@H](Cc1ccccc1)NC(=O)[C@H](Cc1c[nH]cn1)NC(=O)[C@H](C)NC(=O)[C@H](CC(C)C)NC(=O)[C@H](CCCNC(=N)N)NC(=O)[C@H](CCC(=O)O)NC(=O)[C@@H](NC(=O)[C@H](C)NC(=O)[C@@H]1CSSC[C@H](NC(=O)[C@H](CCCNC(=N)N)NC(=O)CC[C@H](NC(=O)CCCCCCCCCCCCCCCCCCC(=O)O)C(=O)O)C(=O)NCC(=O)N[C@@H]([C@@H](C)O)C(=O)N[C@@H](C)C(=O)N[C@@H]([C@@H](C)O)C(=O)N1)[C@@H](C)O) [[19CD]-isoGlu-R-C( )-GTAT-C( )-ATERLAHFLQRSSF-Gly(Me)-A-Ile(Me)-LSSTEVGS-Orn-T-Hyp-NH2 (Compd. 51)]

# — patent US20160272693A1 (ZEALAND PHARMA A S, published 2016)
